Experimental data from the supplement of paper PMC10065799, “High-throughput profiling of sequence recognition by tyrosine kinases and SH2 domains using bacterial peptide display” (eLife, 2023).

target: FGFR3 (UniProt P22607); test: phosphorylation enrichment, bacterial display (enrichment ratio); higher = better substrate or ligand; peptides without Tyr show the background
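Note: 11-residue human phosphosite peptides and single-mutation variants displayed on the E. coli surface, counted by deep sequencing, each peptide's frequency after selection divided by its frequency in the unselected input library; frequency after pTyr selection over input frequency; kinase dosed for 20-30% of maximal phosphorylation in three min.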

Chain of FGFR3 (P22607 whole entry, looked up): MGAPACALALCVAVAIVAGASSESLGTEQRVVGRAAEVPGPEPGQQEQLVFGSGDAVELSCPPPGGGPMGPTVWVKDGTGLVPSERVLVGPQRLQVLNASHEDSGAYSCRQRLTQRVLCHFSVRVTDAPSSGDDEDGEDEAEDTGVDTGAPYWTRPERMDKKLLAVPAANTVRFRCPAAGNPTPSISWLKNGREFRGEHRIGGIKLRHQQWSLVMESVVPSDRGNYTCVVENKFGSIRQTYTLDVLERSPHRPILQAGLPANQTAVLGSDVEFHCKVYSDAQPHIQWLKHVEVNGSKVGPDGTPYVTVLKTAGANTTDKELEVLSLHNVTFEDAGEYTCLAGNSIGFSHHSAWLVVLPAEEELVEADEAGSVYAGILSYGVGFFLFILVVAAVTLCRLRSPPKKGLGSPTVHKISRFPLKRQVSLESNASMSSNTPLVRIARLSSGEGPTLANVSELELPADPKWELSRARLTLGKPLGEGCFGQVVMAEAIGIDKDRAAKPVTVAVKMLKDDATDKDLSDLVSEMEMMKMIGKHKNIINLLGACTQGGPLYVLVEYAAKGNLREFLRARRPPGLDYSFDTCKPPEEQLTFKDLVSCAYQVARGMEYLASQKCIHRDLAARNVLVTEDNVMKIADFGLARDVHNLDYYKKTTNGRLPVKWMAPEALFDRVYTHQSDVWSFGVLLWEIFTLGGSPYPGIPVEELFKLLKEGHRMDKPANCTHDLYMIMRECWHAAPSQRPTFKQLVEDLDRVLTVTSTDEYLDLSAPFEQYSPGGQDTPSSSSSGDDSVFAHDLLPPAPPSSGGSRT

Going from KIKGWYEKCEP [KRT26_Y119] to HHTDECEFDEL [TGM1_Y134_Y134C_YF], the phosphorylation enrichment falls from 0.779 to 0.545.

Going from TGVWDYIHVVD [GALE_Y241_R239W] to EDDPEYMRLRN [ADD2_Y31], the phosphorylation enrichment falls from 0.916 to 0.887.

Compared with GLRQGYFVEAQ [APCS_Y142], EFFDGYWGFSV [ITGA2B_Y265_YF] is higher in phosphorylation enrichment: 0.637 for the first, 4.7 for the second.

First: RMSSSYPTGLA [ADM_Y52]
Second: ISIFHYAKGQP [MPZ_Y82]
The phosphorylation enrichment of the first is lower: 0.613 for the first, 0.68 for the second.

Going from DHPSEYAARQL [ANXA13_Y90_R86H] to FSTDFYRVGGH [NTRK2_Y707_YF], the phosphorylation enrichment rises from 0.445 to 0.569.

Compared with ILTYKYLQIPM [KIT_Y547_K550I], REIHDYIKHLG [UNC13C_Y308_D304E] is lower in phosphorylation enrichment: 0.807 for the first, 0.741 for the second.

First: NYYDLYGGEKF [PTPN11_Y66_D61N]
Second: ISDNACQFMLT [MYH7_Y162_Y162C_YF]
The phosphorylation enrichment of the first is higher: 11.7 for the first, 0.877 for the second.

Compared with RDHYGYRQSVT [CD55_Y245], EVESPYEVRDF [GIGYF2_Y1168_H1171R_YF] is higher in phosphorylation enrichment: 0.339 for the first, 0.942 for the second.

Compared with MPQNEYIELHR [NSA2_Y6], LFMGDYVGRGF [PPP2CA_Y86_D88G_YF] is lower in phosphorylation enrichment: 1.03 for the first, 0.739 for the second.

Going from ADLLVYIKALN [HPRT1_Y81_D80V] to RNFDTYTAGLS [RHBDD1_Y264_YF], the phosphorylation enrichment falls from 0.935 to 0.355.

Compared with CTTIHFNYMCN [TP53_Y234_Y234F], NVVVPYEPPEV [TP53_Y220_S215N] is higher in phosphorylation enrichment: 0.553 for the first, 0.69 for the second.

Compared with LDPIQYSKHPP [SQSTM1_Y433_T430P], SGTFQYIIAKF [FOXL2_Y83_I80T_YF] is lower in phosphorylation enrichment: 0.828 for the first, 0.793 for the second.

Compared with FTGDIYSNSNL [LZTR1_Y141_YF], GHNDVYISEHV [GRIN2A_Y1423] is lower in phosphorylation enrichment: 0.502 for the first, 0.478 for the second.

First: RCNHPYLINGA [CHD7_Y1256_C1251R]
Second: KFLENYLNCLL [PLD2_Y169_R172C_YF]
The phosphorylation enrichment of the first is lower: 0.569 for the first, 0.859 for the second.

First: ISITPYPAILH [IFT80_Y588]
Second: DLLMQYPKAQG [FAM83C_Y600]
The phosphorylation enrichment of the first is higher: 0.676 for the first, 0.467 for the second.

Going from ARGTRYRFVSQ [UCN3_Y95_YF] to EFGFRYELVQY [UGGT2_Y1289_Y1285F], the phosphorylation enrichment rises from 0.535 to 0.617.

In the case of DLGIQYKALKP [CTNNA1_Y177], the phosphorylation enrichment is reported as 0.631.

target: Fes (UniProt P07332); test: as above
Sequence (P07332 whole entry, looked up): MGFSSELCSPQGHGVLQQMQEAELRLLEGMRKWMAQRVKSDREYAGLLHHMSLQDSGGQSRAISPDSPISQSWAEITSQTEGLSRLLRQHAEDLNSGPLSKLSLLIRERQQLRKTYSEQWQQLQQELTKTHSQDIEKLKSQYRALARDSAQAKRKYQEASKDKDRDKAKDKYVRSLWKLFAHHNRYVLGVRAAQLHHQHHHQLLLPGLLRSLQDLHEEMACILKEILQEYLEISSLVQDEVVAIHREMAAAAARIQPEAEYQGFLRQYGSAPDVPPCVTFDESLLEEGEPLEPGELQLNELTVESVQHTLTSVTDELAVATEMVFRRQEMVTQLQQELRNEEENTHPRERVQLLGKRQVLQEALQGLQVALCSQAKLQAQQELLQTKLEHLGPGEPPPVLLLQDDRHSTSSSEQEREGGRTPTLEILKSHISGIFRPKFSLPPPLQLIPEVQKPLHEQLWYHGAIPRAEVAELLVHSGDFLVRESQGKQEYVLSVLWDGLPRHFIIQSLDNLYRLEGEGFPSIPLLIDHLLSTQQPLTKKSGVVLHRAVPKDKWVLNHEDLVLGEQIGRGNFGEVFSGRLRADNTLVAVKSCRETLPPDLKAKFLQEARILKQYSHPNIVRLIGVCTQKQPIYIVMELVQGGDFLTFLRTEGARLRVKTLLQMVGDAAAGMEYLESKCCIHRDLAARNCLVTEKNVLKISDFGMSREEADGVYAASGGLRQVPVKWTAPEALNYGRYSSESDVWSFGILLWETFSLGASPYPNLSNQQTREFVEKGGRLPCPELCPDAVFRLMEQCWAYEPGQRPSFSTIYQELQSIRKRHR

First: KIKGWYEKCEP [KRT26_Y119]
Second: HHTDECEFDEL [TGM1_Y134_Y134C_YF]
The phosphorylation enrichment of the first is higher: 1.21 for the first, 1.1 for the second.

Compared with TGVWDYIHVVD [GALE_Y241_R239W], EDDPEYMRLRN [ADD2_Y31] is lower in phosphorylation enrichment: 1.43 for the first, 1.17 for the second.

Going from GLRQGYFVEAQ [APCS_Y142] to EFFDGYWGFSV [ITGA2B_Y265_YF], the phosphorylation enrichment rises from 1.08 to 1.15.

First: RMSSSYPTGLA [ADM_Y52]
Second: ISIFHYAKGQP [MPZ_Y82]
The phosphorylation enrichment of the first is lower: 0.542 for the first, 1.03 for the second.

Compared with DHPSEYAARQL [ANXA13_Y90_R86H], FSTDFYRVGGH [NTRK2_Y707_YF] is higher in phosphorylation enrichment: 0.633 for the first, 0.813 for the second.

Compared with ILTYKYLQIPM [KIT_Y547_K550I], REIHDYIKHLG [UNC13C_Y308_D304E] is higher in phosphorylation enrichment: 0.997 for the first, 1.26 for the second.

Compared with NYYDLYGGEKF [PTPN11_Y66_D61N], ISDNACQFMLT [MYH7_Y162_Y162C_YF] is higher in phosphorylation enrichment: 1.03 for the first, 1.21 for the second.

Compared with RDHYGYRQSVT [CD55_Y245], EVESPYEVRDF [GIGYF2_Y1168_H1171R_YF] is higher in phosphorylation enrichment: 0.794 for the first, 1.71 for the second.

Compared with MPQNEYIELHR [NSA2_Y6], LFMGDYVGRGF [PPP2CA_Y86_D88G_YF] is higher in phosphorylation enrichment: 0.767 for the first, 1.04 for the second.

First: ADLLVYIKALN [HPRT1_Y81_D80V]
Second: RNFDTYTAGLS [RHBDD1_Y264_YF]
The phosphorylation enrichment of the first is higher: 1.48 for the first, 0.802 for the second.

Going from CTTIHFNYMCN [TP53_Y234_Y234F] to NVVVPYEPPEV [TP53_Y220_S215N], the phosphorylation enrichment rises from 0.74 to 1.15.

Going from LDPIQYSKHPP [SQSTM1_Y433_T430P] to SGTFQYIIAKF [FOXL2_Y83_I80T_YF], the phosphorylation enrichment rises from 0.663 to 1.27.

First: FTGDIYSNSNL [LZTR1_Y141_YF]
Second: GHNDVYISEHV [GRIN2A_Y1423]
The phosphorylation enrichment of the first is higher: 0.849 for the first, 0.618 for the second.

Compared with RCNHPYLINGA [CHD7_Y1256_C1251R], KFLENYLNCLL [PLD2_Y169_R172C_YF] is higher in phosphorylation enrichment: 0.68 for the first, 1.17 for the second.

Going from ISITPYPAILH [IFT80_Y588] to DLLMQYPKAQG [FAM83C_Y600], the phosphorylation enrichment falls from 1.24 to 0.543.

Compared with ARGTRYRFVSQ [UCN3_Y95_YF], EFGFRYELVQY [UGGT2_Y1289_Y1285F] is higher in phosphorylation enrichment: 0.548 for the first, 1.14 for the second.

Work on DLGIQYKALKP [CTNNA1_Y177] yielded a phosphorylation enrichment of 0.853.

test system: c-Src; test: as above

Compared with KIKGWYEKCEP [KRT26_Y119], HHTDECEFDEL [TGM1_Y134_Y134C_YF] is higher in phosphorylation enrichment: 0.47 for the first, 0.727 for the second.

First: TGVWDYIHVVD [GALE_Y241_R239W]
Second: EDDPEYMRLRN [ADD2_Y31]
The phosphorylation enrichment of the first is lower: 0.471 for the first, 0.509 for the second.

Compared with GLRQGYFVEAQ [APCS_Y142], EFFDGYWGFSV [ITGA2B_Y265_YF] is higher in phosphorylation enrichment: 0.327 for the first, 5.54 for the second.

First: RMSSSYPTGLA [ADM_Y52]
Second: ISIFHYAKGQP [MPZ_Y82]
The phosphorylation enrichment of the first is lower: 0.334 for the first, 0.35 for the second.

Compared with DHPSEYAARQL [ANXA13_Y90_R86H], FSTDFYRVGGH [NTRK2_Y707_YF] is lower in phosphorylation enrichment: 0.482 for the first, 0.478 for the second.

First: ILTYKYLQIPM [KIT_Y547_K550I]
Second: REIHDYIKHLG [UNC13C_Y308_D304E]
The phosphorylation enrichment of the first is lower: 0.396 for the first, 1.02 for the second.

Compared with NYYDLYGGEKF [PTPN11_Y66_D61N], ISDNACQFMLT [MYH7_Y162_Y162C_YF] is lower in phosphorylation enrichment: 4.47 for the first, 0.448 for the second.

First: RDHYGYRQSVT [CD55_Y245]
Second: EVESPYEVRDF [GIGYF2_Y1168_H1171R_YF]
The phosphorylation enrichment of the first is lower: 0.822 for the first, 6.73 for the second.

Going from MPQNEYIELHR [NSA2_Y6] to LFMGDYVGRGF [PPP2CA_Y86_D88G_YF], the phosphorylation enrichment rises from 0.66 to 2.31.

Going from ADLLVYIKALN [HPRT1_Y81_D80V] to RNFDTYTAGLS [RHBDD1_Y264_YF], the phosphorylation enrichment rises from 0.471 to 1.15.

Compared with CTTIHFNYMCN [TP53_Y234_Y234F], NVVVPYEPPEV [TP53_Y220_S215N] is higher in phosphorylation enrichment: 0.519 for the first, 0.543 for the second.

Compared with LDPIQYSKHPP [SQSTM1_Y433_T430P], SGTFQYIIAKF [FOXL2_Y83_I80T_YF] is higher in phosphorylation enrichment: 0.303 for the first, 0.366 for the second.

Going from FTGDIYSNSNL [LZTR1_Y141_YF] to GHNDVYISEHV [GRIN2A_Y1423], the phosphorylation enrichment falls from 5.54 to 0.395.

Going from RCNHPYLINGA [CHD7_Y1256_C1251R] to KFLENYLNCLL [PLD2_Y169_R172C_YF], the phosphorylation enrichment rises from 0.481 to 0.572.

Going from ISITPYPAILH [IFT80_Y588] to DLLMQYPKAQG [FAM83C_Y600], the phosphorylation enrichment falls from 0.414 to 0.352.

First: ARGTRYRFVSQ [UCN3_Y95_YF]
Second: EFGFRYELVQY [UGGT2_Y1289_Y1285F]
The phosphorylation enrichment of the first is higher: 0.607 for the first, 0.393 for the second.

In the case of DLGIQYKALKP [CTNNA1_Y177], the phosphorylation enrichment is reported as 0.449.

target: Fyn (UniProt P06241); test: as above
Sequence (P06241 whole entry, looked up): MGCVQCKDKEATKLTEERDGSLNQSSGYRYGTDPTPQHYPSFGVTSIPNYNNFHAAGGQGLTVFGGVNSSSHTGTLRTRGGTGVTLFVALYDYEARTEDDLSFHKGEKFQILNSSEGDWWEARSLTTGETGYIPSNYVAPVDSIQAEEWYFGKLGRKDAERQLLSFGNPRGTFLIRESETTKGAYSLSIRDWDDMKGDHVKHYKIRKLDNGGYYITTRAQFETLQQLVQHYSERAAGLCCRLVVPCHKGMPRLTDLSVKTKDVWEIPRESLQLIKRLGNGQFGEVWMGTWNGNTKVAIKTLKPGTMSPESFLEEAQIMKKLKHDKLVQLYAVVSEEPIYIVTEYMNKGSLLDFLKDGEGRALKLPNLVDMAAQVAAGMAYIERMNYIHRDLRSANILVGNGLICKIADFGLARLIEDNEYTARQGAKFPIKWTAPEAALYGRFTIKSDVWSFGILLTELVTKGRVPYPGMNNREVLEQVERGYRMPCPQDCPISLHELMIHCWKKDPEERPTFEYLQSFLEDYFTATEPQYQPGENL

Going from KIKGWYEKCEP [KRT26_Y119] to HHTDECEFDEL [TGM1_Y134_Y134C_YF], the phosphorylation enrichment rises from 0.442 to 0.488.

First: TGVWDYIHVVD [GALE_Y241_R239W]
Second: EDDPEYMRLRN [ADD2_Y31]
The phosphorylation enrichment of the first is lower: 0.47 for the first, 0.601 for the second.

Compared with GLRQGYFVEAQ [APCS_Y142], EFFDGYWGFSV [ITGA2B_Y265_YF] is higher in phosphorylation enrichment: 0.366 for the first, 3.98 for the second.

Compared with RMSSSYPTGLA [ADM_Y52], ISIFHYAKGQP [MPZ_Y82] is lower in phosphorylation enrichment: 0.525 for the first, 0.463 for the second.

Compared with DHPSEYAARQL [ANXA13_Y90_R86H], FSTDFYRVGGH [NTRK2_Y707_YF] is higher in phosphorylation enrichment: 0.454 for the first, 0.493 for the second.

Going from ILTYKYLQIPM [KIT_Y547_K550I] to REIHDYIKHLG [UNC13C_Y308_D304E], the phosphorylation enrichment rises from 0.422 to 0.821.

Compared with NYYDLYGGEKF [PTPN11_Y66_D61N], ISDNACQFMLT [MYH7_Y162_Y162C_YF] is lower in phosphorylation enrichment: 5.82 for the first, 0.597 for the second.

Going from RDHYGYRQSVT [CD55_Y245] to EVESPYEVRDF [GIGYF2_Y1168_H1171R_YF], the phosphorylation enrichment rises from 0.866 to 7.49.

Compared with MPQNEYIELHR [NSA2_Y6], LFMGDYVGRGF [PPP2CA_Y86_D88G_YF] is higher in phosphorylation enrichment: 0.444 for the first, 1.5 for the second.

Going from ADLLVYIKALN [HPRT1_Y81_D80V] to RNFDTYTAGLS [RHBDD1_Y264_YF], the phosphorylation enrichment rises from 0.455 to 0.9.

Going from CTTIHFNYMCN [TP53_Y234_Y234F] to NVVVPYEPPEV [TP53_Y220_S215N], the phosphorylation enrichment rises from 0.432 to 0.641.

Compared with LDPIQYSKHPP [SQSTM1_Y433_T430P], SGTFQYIIAKF [FOXL2_Y83_I80T_YF] is higher in phosphorylation enrichment: 0.472 for the first, 0.532 for the second.

First: FTGDIYSNSNL [LZTR1_Y141_YF]
Second: GHNDVYISEHV [GRIN2A_Y1423]
The phosphorylation enrichment of the first is higher: 6.36 for the first, 0.416 for the second.

Going from RCNHPYLINGA [CHD7_Y1256_C1251R] to KFLENYLNCLL [PLD2_Y169_R172C_YF], the phosphorylation enrichment rises from 0.401 to 0.497.

Compared with ISITPYPAILH [IFT80_Y588], DLLMQYPKAQG [FAM83C_Y600] is lower in phosphorylation enrichment: 0.409 for the first, 0.385 for the second.

Compared with ARGTRYRFVSQ [UCN3_Y95_YF], EFGFRYELVQY [UGGT2_Y1289_Y1285F] is lower in phosphorylation enrichment: 0.52 for the first, 0.329 for the second.

In the case of DLGIQYKALKP [CTNNA1_Y177], the phosphorylation enrichment is reported as 0.388.
